Experimental data published in US10428347B2, “Herbicide-detoxifying enzymes and uses thereof” (priority 2017, dated 2019).

Legend:
[1] = Absorbance spectra assay of mecoprop degradation by ChD or CAC; assay type: biochemical; details: mecoprop 200 mg/L alone (no enzyme), 50 mM HEPES pH 7, one hour at 37° C.
Procedure: (§1) Small scale (1 mL) assays were performed to evaluate the ability of ChD and CAC to degrade MCPA-4 amine or mecoprop.
(§2) MCPA-4 amine and mecoprop have absorbance maxima (Amax) at approximately 230 and 280 nm. […] MCPA-4 amine or mecoprop end product generation is directly proportional to the degradation MCPA-4 amine or mecoprop, respectively.

[2] = Absorbance spectra assay of MCPA-4 amine degradation by ChD or CAC; assay type: biochemical; details: MCPA-4 amine 200 mg/L alone (no enzyme), 50 mM HEPES pH 7, one hour at 37° C.
Procedure: as §1, §2

[3] = Procedure: A Bacillus subtilis (A64) control reaction, which was supernatant with no SM1 enzyme was performed in parallel. The reactions were incubated at 37° C. with 400 rpm stirring for two hours. Aliquots of the reactions were collected at time 0 (T0), 1 hour, and 2 hours, and frozen at −80° C.
HPLC column (Kinetex® 5 μm C18 100 Å, LC Column 50×4.6 mm) was equilibrated for 15 minutes with 35% acetonitrile and 65% 10 mM ammonium acetate with 0.1% formic acid in water. A volume of 10 μL of each sample was injected into Waters 2695 Separations Module with a 2996 Photodiode Array Detector. Samples were run isocratically (35% acetonitrile and 65% 10 mM ammonium acetate with 0.1% formic acid in water) for 2 minutes. […] An average of 3 measurements was run for each treatment sample.
The HPLC results as reported in FIG. 2 are the average of 3 sample measurements.

[4] = test system: soybean plants; assay: Trifoliate damage scoring of soybean treated with SM1-dicamba reaction products; assay type: in vivo; details: V1 soybean (Morsoy Xtra), 100 μL reaction product diluted 1:24 with 0.01% SILWET L-77 on trifoliate leaves, 6 plants; Time (hours) 2; scale 0-5
Description: These SM1-dicamba degradation products were applied to soybean seedlings (variety, Morsoy Xtra). […] The plants were scored based on trifoliate damage using the scale as described in Table 27.

[5] = Sorbitol dehydrogenase enzyme activity (NADH production at 340 nm); assay type: biochemical; details: for enzyme activity level: NAD^+ and sorbitol, absorbance readings at 340 nm at 5 min after the start of the reaction; for regeneration of NADH (NADH production, 0-36 min): vs no enzyme control and background A64
Description: To determine enzyme activity for sorbitol dehydrogenase in the production samples, reactions were set up with NAD^+, sorbitol and the sorbitol dehydrogenase enzyme collected in supernatant derived from the Bacillus subtilis A64 cultures. Absorbance at 340 nm was monitored with a BioTek SYNERGY HTX plate reader (BioTek Industries Inc.). […] The extinction coefficient of NADH at 340 nm (6220 M^−1 cm^−1) was used to estimate the enzyme activity of the sorbitol dehydrogenase enzyme. The enzyme activity was compared to commercially available sorbitol dehydrogenase enzyme produced from sheep liver (S-3764, Sigma-Aldrich).
NADH production was measured and reported as an average of 7 measurements and reported over a time series (0-36 min.) for the sorbitol dehydrogenase GutB (SDH GutB), the sorbitol dehydrogenase from sheep liver (SDH control) and compared to the A64 filtrate and no enzyme treatments both used as negative controls in the enzyme assay.

[6] = test system: lentil plants; assay: Lentil seeds coated with immobilized enzyme, grown in dicamba-containing soil; assay type: in vivo
Procedure: For each treatment group, eighteen lentil seeds were coated with immobilized salicylate monooxygenase (SM, SEQ ID NO: 21) or hydroxyphenylacetate monooxygenase (HPAM, SEQ ID NO: 30), or with a water-only control (H2O) or a control containing only the particles used for immobilization, without any enzyme (“Particle Alone”). […] 50 ml of water was selected as this is the saturation point of this soil at this scale. Herbicides were allowed to sit in the soil for 24 hours before planting of coated seeds. Germination rate was measured at one week and root and shoot lengths were measured after two weeks.
Further data illustrating the protective effects of salicylate monooxygenase (SM) and hydroxyphenylacetate monooxygenase (HPAM) on lentil plants grown in dicamba-containing soil are provided in FIGS. 6-9. Lentil seeds were treated as described above with water alone, particle alone, or enzyme immobilized on a particle. […] Growth (shoot and root length) was measured at two weeks.

[7] = test system: soybean seedlings; assay: Spray of enzyme-treated dicamba solution onto soybean seedlings; assay type: in vivo; details: 208 μM dicamba, immobilized enzyme, 30° C., soybean seedlings, one week
Procedure: Salicylate monooxygenase (SM, SEQ ID NO: 21) and hydroxyphenylacetate monooxygenase (HPAM, SEQ ID NO: 30) were immobilized on particles. […] Aliquots (1 ml) were taken from incubated samples at 0 minutes, 10 minutes, 30 minutes, 1 hour, 5 hours, 24 hours and 30 hours after the introduction of SM and immediately frozen to stop the detoxification reaction. NADPH consumption was quantified by measuring loss of absorbance at 340 nm using a spectrophotometer. Results for SM are shown in panel A of FIG. 10 and results for HPAM are shown in panel A of FIG. 11. Consumption of NADPH is proportional to the degradation of dicamba.
Immediately after taking the absorbance measurements, the 1 ml aliquots were mixed with a nonionic organosilicone surfactant copolymer (0.1% SILWET L77) and 200 μL of the mixture was sprayed onto 2.5-week-old soybean seedlings (six plants per treatment group, on average). The use of the surfactant ensured even distribution of the solutions on the plants. Control plants were sprayed with water+surfactant alone or dicamba+surfactant alone. After one week, the degree of herbicide damage or the degree of protection from dicamba-induced injury (in plants treated with SM) was assessed visually.

Cc1cc(Cl)ccc1OC(C)C(=O)[O-].[K+] (racemic) [Mecoprop, Potassium (RS)-2-(2-methyl-4-chlorophenoxy)propionate, reference compound]
Absorbance Maxima at Wavelength (λ) 230 [1]: 1.723 | Absorbance Maxima at Wavelength (λ) 252 [1]: 0.2562 | Absorbance Maxima at Wavelength (λ) 280 [1]: 1.214

Cc1cc(Cl)ccc1OCC(=O)O [MCPA-4-Amine, 2-methyl-4-chlorophenoxyacetic acid, reference compound]
Absorbance Maxima at Wavelength (λ) 230 [2]: 1.739 | Absorbance Maxima at Wavelength (λ) 252 [2]: 0.2573 | Absorbance Maxima at Wavelength (λ) 280 [2]: 1.506

B1: SM1: salicylate monooxygenase from Bacillus cereus strain B377, amino acid SEQ ID NO: 251 (nucleotide SEQ ID NO: 243) (protein, listed as Bacillus cereus)
chain: MGKEKKYDAIVVGAGPVGLVAGLALQKKGISTLVIEADSFGRPRPGSRAIYLHSASLKLLEETSEGLGFTLAHNGIIWPVKRTFYKGKEVYVRDYGKDENLKFNRLPHFTALHQDEIEKHMYEACIKEGVEFLWDAPVKKLHITDSGVELTITNDEILKAQYVIGCDGARSIVREEAGLTFEGPRTADTFIVVDAKEDETDPLPLERIFHYQHPAMEGRNVMFVPFKGGWRIDLQLLESDNPDDYTNIESVKTWLPKVMDAKYAERITWVSSYRFHQVVANSFTDEKRRVLLAGEAAHLFAPFGARGLNSGIPDAVLAARGIEKALHSHSEEERVEAIEAAAKERRIAAQWNRDASTTALHHLQGSSPEMNMKRDIAASLVSIVPRLGRWLDEGPYGPKFGPPELTTKY
Percent Dicamba Concentration Relative to T0 control ([3]; HPLC, Time 2 hours): 84.3% | dicamba concentration (HPLC) ([3]; dicamba 100 ppm, 250 μL SM1 enzyme, 0.5 mM NADH, HEPES pH 7.0, 1 hour of incubation (FIG. 17)): decreased concentrations | decrease in dicamba concentration (HPLC) ([3]; dicamba 100 ppm, 250 μL SM1 enzyme, 0.5 mM NADH, HEPES pH 7.0, 2 hours of incubation (FIG. 17)): approximately 50% | average trifoliate damage score [4]: 2.8

B2: SDH control: commercially available sorbitol dehydrogenase enzyme produced from sheep liver (S-3764, Sigma-Aldrich) (protein, UniProt P07846 1-354, looked up)
Sorbitol dehydrogenase: AKPAAENLSLVVHGPGDLRLENYPIPEPGPNEVLLKMHSVGICGSDVHYWQGRIGDFVVKKPMVLGHEASGTVVKVGSLVRHLQPGDRVAIQPGAPRQTDEFCKIGRYNLSPTIFFCATPPDDGNLCRFYKHNANFCYKLPDNVTFEEGALIEPLSVGIHACRRAGVTLGNKVLVCGAGPIGLVNLLAAKAMGAAQVVVTDLSASRLSKAKEVGADFILEISNESPEEIAKKVEGLLGSKPEVTIECTGVETSIQAGIYATHSGGTLVLVGLGSEMTSVPLVHAATREVDIKGVFRYCNTWPMAISMLASKSVNVKPLVTHRFPLEKALEAFETSKKGLGLKVMIKCDPSDQNP
enzyme activity level [5]: 1447 U/mL | regeneration of NADH (NADH production, 0-36 min) [5]: greater regeneration of NADH

B3: GutB sorbitol dehydrogenase: sorbitol dehydrogenase from Bacillus subtilis strain 168, SEQ ID NO: 288, cofactor-regenerating enzyme (protein, listed as Bacillus subtilis)
chain: MTHTVPQNMKAAVMHNTREIKIETLPVPDINHDEVLIKVMAVGICGSDLHYYTNGRIGNYVVEKPFILGHECAGEIAAVGSSVDQFKVGDRVAVEPGVTCGRCEACKEGRYNLCPDVQFLATPPVDGAFVQYIKMRQDFVFLIPDSLSYEEAALIEPFSVGIHAAARTKLQPGSTIAIMGMGPVGLMAVAAAKAFGAGTIIVTDLEPLRLEAAKKMGATHIINIREQDALEEIKTITNDRGVDVAWETAGNPAALQSALASVRRGGKLAIVGLPSQNEIPLNVPFIADNEIDIYGIFRYANTYPKGIEFLASGIVDTKHLVTDQYSLEQTQDAMERALQFKNECLKVMVYPNR
enzyme activity level [5]: 207 U/mL | regeneration of NADH (NADH production, 0-36 min) [5]: sufficient ability to reduce NAD to NADH

B4: HPAM: hydroxyphenylacetate monooxygenase from Bacillus cereus BGSC 6E1, amino acid SEQ ID NO: 30 (protein, listed as Bacillus cereus)
chain: MAIRTGEQYIEGLRKRNPEIWIGGRKVTDVVNEDVFREPIIQIANLYDMQHNPEYQDKITHICEETGERVSNAFLVPRNYEDLKVRRELFEVWAKATYGLMGRTPDFLNVTVTSMASNSWFFEKFNPEWGANIKNYYKHIRDNDLFLTHAIINPQNDRSKASHQQEDETMHLGVVSETAEGMYVSGAKMLATLAPITDEVIIYSYPSFKPGDERHAISFAVPIDAPGLRILCREPMQDGKRSLFDHPLASRFEEMDALLVFHNVFIPWDKVFIYQSVEAGNQLYPKTGIGHQPAHQSGVRGLVKLSFAAEVAMKLADSIGVDGFLNVQNQLAELMQDVETIRALLQVAEYEYETNSYGEVIPARLPLDTIRSLLPKMYPRAIEIIQTIGAGGLLMSPTGADFMNPEIHDDMQKYYIGREGVSSEERVRLFKLAWDLCGEAFGQRLLQYERYYSGDPVRKMGMFYNAYKKQQTFSLVNNALQSSSSEGALS
germination rate ([6]; lentil seeds coated with immobilized enzyme, soil with dicamba 0.1× or […] label rate, one week, vs water and particle-alone controls): positive effect | shoot length ([6]; two-week-old lentil, soil with dicamba 0.1× label rate (0.588 mg/L), vs water only or particle only controls (FIG. 6, FIG. 8)): longer shoot lengths | incubation time of enzyme with dicamba giving plants equivalent to the water control [7]: 30 min
